Assays:
[1] = tested on: chick dorsal root ganglion neurons, myelin-induced neurite outgrowth inhibition; assay: Neurite outgrowth of embryonic day 13 chick DRG neurons on myelin (Example 29); type: cell-based; settings: 8 μM NgR(310)ecto-Fc; MP 10 μg/nl as printed
Procedure: In investigating combined treatment with methyprednisolone (MP) and NgR(310)ecto-Fc for spinal cord injury (SCI), we sought to verify that these reagents have independent mechanisms of action. Briefly, myelin was dried overnight in poly-L-lysine-precoated plates (Becton Dickinson, Bedford, Mass., USA) at 80 or 400 ng/well (2.5 and 12.7 ng/mm^2, respectively). Wells were then coated with 10 µg/ml laminin (Calbiochem, La Jolla, Calif., USA) for 1 hour at foom temperature (22-24 C). Embryonic day 13 chick dorsal root ganglion neurons were dissociated and plated for 6-8 hours as previously described (GrandPre et al., 2000; Fournier et al., 2001). Neurons were treated with 8 μM NgR(310)ecto-Fc in the presence or absence of 10 μg/nl MP (Pharmacia, Kalamazoo, Mich., USA) for the entire outgrowth period. Neurons were then fixed and stained with βIII tubulin antibody (Covance, Princeton, N.J., USA) and neurite outgrowth was quantified using an automated cellular imaging and analysis system (Axon Instrument, Union City, Calif.; USA). Neurite outgrowth per cell was normalized to the average of duplicate control wells for each experiment (n=3). […] These in vitro data support the hypothesis that MP and NgR(310)ecto-Fc will enhance SCI recovery in a sequentially effective manner.

[2] = tested on: rats with dorsal hemisection (CST transection); assay: Functional recovery after spinal cord transection in rats (BBB, stride length; Example 30); type: in vivo, rat
Procedure: Briefly, female Long Evans rats (7 weels old; Charles River, Wilmington, Mass., USA) were anesthetized using 25 mg/kg midazolam i.p. (Abott Laboratories, Chicago, Ill., USA) and 2-3% fluothane (Baxter, Deerfield, Ill., USA) in O2 and a dorsal laminectomy performed at spinal level T6 and T7. General anesthesia wa maintained at 1.5-2% fluothane in O2 A dorsal hemisection was performed completely interrupting the main dorsomedial and the mino dorsplateral corticospinal tract (CST) components. A microscapel was used to sterotaxically transect the cord at a depth of 1.8 mm from the surface of the cord. Immediately after CST transection, an intrathecal catheter was inserted into the subarachnoid space at T7 and connected to a primed mini-osmotic pump inserted into the subcutaneous space. […] Functional recovery was assessed using the BBB openfield scoring method (Basso et al., J. Neurotrauma 12:1-21 (1995)) the following day and weekly thereafter.
A discriminating point on the BBB score is a score of 14, corresponding to consistent weight supported planter steps and consistent hindlimb-forelimb coordination.

[3] = tested on: rats with CST transection; assay: BDA-labeled axon counts caudal to spinal cord transection in rats (Example 31); type: in vivo, rat; settings: 15 mm caudal to the injury site
Procedure: Treatment with NgR(310)ecto-Fc or combined treatment with MP and NgR(310)ecto-Fc enhanced axonal plasticity/regeneration after spinal cord transection. Briefly, for histological tracing of the CSTs, 2 weeks after CST transection animals were re-anesthetized and an incision made in the scalp. The area around the skin incision was injected with a local anesthetic, the left sensorimotor cortex exposed via a craniotomy and 7 μL 10% biotin dextran amine (BDA; 10,000 MW; Molecular Probes, Eugene, Oreg., USA) in PBS injected using a nanoliter injector and micro4 controller at 12 points 0-3.5 mm posterior to Bregma and […] lateral to the midline at a depth of 1 mm below the surface of the cortex. In some instances, the CST was labeled bilaterally using the same procedure.
At 28 days after CST transection, the rats were anesthetized with inactin (100-110 mg/kg i.p.) and transcardially perfused with heparinized saline (100 ml, 10 iu heparin) followed by 4% paraformaldehyde (150 ml). […]
Frozen sections (50 μm) were serially cut and stained with strepavidin-conjugated AlexaFluor-594 (1:200; Molecular Probes) to visualize labeled CST axons. […] Every eighth section, i.e., sections 400 μm apart, was counted for each animal at each level of the cord and the values were expressed as mean number of axons per section.

B1: NgR(310)ecto-Fc: ectodomain of the rat NgR1 (27-310) fused to a rat IgG (protein)
chain: PCPGACVCYNEPKVTTSRPQQGLQAVPAGIPASSQRIFLHGNRISYVPAASFQSCRNLTILWLHSNALAGIDAAAFTGLTLLEQLDLSDNAQLRVVDPTTFRGLGHLHTLHLDRCGLQELGPGLFRGLAALQYLYLQDNNLQALPDNTFRDLGNLTHLFLHGNRIPSVPEHAFRGLHSLDRLLLHQNHVARVHPHAFRDLGRLMTLYLFANNLSMLPAEVLVPLRSLQYLRLNDNPWVCDCRARPLWAWLQKFRGSSSGVPSNLPQRLAGRDLKRLATSDLEGCA
modifications: left off: a dimerising Fc or GST
notes: ectodomain of the rat NgR1 (27-310) fused to a rat IgG
- effect on neurite outgrowth on a myelin substrate [1]: reverse the inhibition
- BBB scores normalized to day 2 ([2]; 2, 3 and 4 weeks after SCI): significant improvement
- mean stride length vs controls ([2]; 4 weeks after SCI): significantly improved
- Mean BBB score ([2]; after 4 weeks): 14.8±0.24
- frequency of rats with BBB score of 14 or greater (consistent plantar stepping and coordinated movement) ([2]; by 4 weeks): 100%
- number of BDA-labeled axons [3]: significantly greater numbers

From patent publication US9228015B2, “Nogo receptor antagonists and methods of increasing neurite outgrowth” (Biogen Idec MA Inc., priority 2006, dated 2016)
